This note sets out measurements from article PMC11695638.

“And” between values parts separate entries of the source, which are not always exact repeats. Identical values can stand only once.

Assay [1] addresses asialoglycoprotein receptor 1 (ASGR1, P01) (UniProt P07306). In words: SPR; Biacore T200, 25°C, HBS-EP+ with 8 mM CaCl2; LRP-1 (approx. 1300 RU), ASGR1 (approx. 1500 RU) and MRC1 (approx. 13,000 RU) amine-coupled to parallel flow cells of CM5; Metalyse (88, 53, 32 μg/mL) and Mingfule (53, 32, 19 μg/mL) injected at 30 μL/min for 240 s, 150 s dissociation; sensorgram comparison gives a similarity score.

Assay [2] deals with recombinant low-density lipoprotein receptor-related protein 1 (LRP-1) Cluster IV. The description is as above.
The target in assay [3] is mannose receptor C, type 1 (MRC1) (UniProt P22897). Described as above.
Assay [4] deals with fibrin (immobilised human plasma fibrinogen cross-linked on the chip with thrombin and coagulation factor XIII) (human) (UniProt P02671). In words: SPR; Biacore T200, 25°C, HBS-EP+; fibrinogen amine-coupled to CM5 (aim 12,000 RU) and cross-linked with thrombin and factor XIII; tenecteplase injected at 2, 3 and 4 μg/mL, 5 μL/min, 120 s contact and 120 s dissociation; sensorgram comparison against a corridor (average ± 3 SD, normalised) of three Metalyse lots gives a similarity score.
Chain of UniProt P02671 (P02671 36-866, chain 1 of 3): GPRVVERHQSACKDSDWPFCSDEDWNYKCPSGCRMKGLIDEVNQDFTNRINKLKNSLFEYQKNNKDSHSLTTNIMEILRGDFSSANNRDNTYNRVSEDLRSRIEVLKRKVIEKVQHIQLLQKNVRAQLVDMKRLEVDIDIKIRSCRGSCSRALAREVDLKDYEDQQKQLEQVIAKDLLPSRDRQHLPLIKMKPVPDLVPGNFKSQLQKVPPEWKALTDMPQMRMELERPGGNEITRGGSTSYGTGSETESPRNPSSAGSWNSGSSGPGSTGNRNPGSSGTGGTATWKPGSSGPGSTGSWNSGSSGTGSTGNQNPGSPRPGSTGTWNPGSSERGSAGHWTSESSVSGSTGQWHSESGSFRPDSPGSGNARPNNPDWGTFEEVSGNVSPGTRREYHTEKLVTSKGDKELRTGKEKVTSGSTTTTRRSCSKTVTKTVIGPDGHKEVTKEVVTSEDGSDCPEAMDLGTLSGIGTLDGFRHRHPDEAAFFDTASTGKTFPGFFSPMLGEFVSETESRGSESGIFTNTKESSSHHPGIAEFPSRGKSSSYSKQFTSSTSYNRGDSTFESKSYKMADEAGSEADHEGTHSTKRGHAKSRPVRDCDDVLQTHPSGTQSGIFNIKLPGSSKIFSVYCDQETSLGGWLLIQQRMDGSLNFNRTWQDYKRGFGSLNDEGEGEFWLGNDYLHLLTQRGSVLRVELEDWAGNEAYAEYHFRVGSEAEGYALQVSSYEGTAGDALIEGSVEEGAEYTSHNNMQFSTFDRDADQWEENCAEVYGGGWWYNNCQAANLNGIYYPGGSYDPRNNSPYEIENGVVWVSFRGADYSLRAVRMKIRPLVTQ
Chain of UniProt P02671 (P02675 45-491, chain 2 of 3, further chain): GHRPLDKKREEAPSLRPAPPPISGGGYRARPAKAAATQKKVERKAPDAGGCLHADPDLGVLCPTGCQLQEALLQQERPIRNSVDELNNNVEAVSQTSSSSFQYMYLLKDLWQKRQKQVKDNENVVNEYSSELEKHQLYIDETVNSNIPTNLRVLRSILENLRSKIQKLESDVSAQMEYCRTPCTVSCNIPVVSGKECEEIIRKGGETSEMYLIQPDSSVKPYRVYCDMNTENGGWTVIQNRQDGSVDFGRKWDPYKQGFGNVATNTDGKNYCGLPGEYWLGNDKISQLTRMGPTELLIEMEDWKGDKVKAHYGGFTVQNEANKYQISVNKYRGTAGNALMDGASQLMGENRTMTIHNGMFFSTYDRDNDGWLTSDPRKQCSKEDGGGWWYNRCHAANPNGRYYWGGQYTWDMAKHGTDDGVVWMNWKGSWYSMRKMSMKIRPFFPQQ
Chain of UniProt P02671 (P02679 27-453, chain 3 of 3, further chain): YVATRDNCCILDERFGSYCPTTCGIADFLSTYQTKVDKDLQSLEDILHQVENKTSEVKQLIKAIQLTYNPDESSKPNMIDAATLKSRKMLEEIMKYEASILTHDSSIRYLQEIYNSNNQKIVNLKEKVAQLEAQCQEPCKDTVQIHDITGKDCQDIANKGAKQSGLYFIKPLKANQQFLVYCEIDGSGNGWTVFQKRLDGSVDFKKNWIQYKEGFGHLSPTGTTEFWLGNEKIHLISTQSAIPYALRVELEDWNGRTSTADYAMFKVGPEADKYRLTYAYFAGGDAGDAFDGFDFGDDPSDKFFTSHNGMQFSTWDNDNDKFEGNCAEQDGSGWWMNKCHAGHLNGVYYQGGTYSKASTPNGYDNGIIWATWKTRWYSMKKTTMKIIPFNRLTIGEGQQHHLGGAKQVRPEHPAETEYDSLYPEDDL

Chain of UniProt P22897 (P22897 19-1389): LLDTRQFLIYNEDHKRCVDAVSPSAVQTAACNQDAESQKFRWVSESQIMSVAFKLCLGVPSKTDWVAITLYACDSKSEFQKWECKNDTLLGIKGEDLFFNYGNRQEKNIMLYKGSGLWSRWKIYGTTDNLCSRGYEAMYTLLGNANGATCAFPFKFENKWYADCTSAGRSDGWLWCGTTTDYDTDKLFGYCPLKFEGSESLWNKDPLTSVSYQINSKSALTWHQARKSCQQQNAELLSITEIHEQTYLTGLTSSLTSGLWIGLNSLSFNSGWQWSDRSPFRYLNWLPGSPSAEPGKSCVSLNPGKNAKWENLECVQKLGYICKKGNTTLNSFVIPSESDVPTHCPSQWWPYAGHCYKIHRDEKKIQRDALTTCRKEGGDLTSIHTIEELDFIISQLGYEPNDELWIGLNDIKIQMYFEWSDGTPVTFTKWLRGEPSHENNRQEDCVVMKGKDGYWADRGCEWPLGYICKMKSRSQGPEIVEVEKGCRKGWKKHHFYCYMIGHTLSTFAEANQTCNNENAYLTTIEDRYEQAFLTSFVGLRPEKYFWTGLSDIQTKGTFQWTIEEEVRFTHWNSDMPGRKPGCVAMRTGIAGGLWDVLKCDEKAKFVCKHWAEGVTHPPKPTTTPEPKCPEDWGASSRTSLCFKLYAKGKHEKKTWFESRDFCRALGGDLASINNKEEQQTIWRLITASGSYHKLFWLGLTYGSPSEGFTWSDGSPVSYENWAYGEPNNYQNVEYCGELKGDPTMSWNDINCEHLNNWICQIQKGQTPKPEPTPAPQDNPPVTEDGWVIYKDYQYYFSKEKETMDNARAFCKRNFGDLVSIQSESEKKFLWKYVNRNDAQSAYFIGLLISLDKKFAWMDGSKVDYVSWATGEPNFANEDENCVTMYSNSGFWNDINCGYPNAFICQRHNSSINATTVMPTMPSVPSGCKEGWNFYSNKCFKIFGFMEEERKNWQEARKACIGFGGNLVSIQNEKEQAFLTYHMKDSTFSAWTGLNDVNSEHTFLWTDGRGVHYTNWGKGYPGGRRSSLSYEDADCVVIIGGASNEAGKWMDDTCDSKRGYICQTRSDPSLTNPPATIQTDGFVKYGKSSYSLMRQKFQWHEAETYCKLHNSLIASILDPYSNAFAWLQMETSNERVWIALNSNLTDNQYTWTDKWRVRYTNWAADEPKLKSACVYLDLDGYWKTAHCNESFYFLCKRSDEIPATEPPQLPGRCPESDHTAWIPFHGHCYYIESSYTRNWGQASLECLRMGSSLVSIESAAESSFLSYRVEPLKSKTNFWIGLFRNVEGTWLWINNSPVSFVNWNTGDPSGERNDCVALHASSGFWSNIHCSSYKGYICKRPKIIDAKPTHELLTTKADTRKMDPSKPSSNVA

Take “tenecteplase copy Mingfule 16 mg/vial (CSPC Recomgen Pharmaceutical, Guangzhou, Co., Ltd.) (enzyme)”: the similarity score to Metalyse (SPR sensorgram comparison) was 5% and 6% and 9% in assay [1]; 30% and 17% and 25% in assay [2]; 8% and 9% and 10% in assay [3]; 53% and 37% and 46% in assay [4].
